# Assay results from US20230303690A1 (published 2023).
# Like-named read-outs stand apart in the source and are kept apart here.
# T1: LAG3 Protein, Human, Recombinant (His Tag) (Sino Biological Catalog No. 16498-H08H) (human, UniProt P18627 23-450)
# T1 construct: Bought protein; also called hLAG3-His; LAG3-His; not shown: His tag
# T1 sequence (looked up): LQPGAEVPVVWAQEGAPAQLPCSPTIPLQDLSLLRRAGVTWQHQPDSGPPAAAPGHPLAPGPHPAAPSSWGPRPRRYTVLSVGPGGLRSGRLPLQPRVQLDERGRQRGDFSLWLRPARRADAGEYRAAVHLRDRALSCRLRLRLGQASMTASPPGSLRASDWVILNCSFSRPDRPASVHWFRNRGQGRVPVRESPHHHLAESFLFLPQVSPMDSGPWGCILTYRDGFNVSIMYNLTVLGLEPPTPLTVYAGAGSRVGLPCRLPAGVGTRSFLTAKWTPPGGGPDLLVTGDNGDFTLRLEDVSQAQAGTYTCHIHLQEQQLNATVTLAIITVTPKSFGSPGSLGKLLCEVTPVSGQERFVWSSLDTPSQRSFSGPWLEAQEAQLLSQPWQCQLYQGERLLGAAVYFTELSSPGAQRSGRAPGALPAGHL
# T2: human LAG3 expressed on cells (human, UniProt P18627 23-525)
# T2 sequence (looked up): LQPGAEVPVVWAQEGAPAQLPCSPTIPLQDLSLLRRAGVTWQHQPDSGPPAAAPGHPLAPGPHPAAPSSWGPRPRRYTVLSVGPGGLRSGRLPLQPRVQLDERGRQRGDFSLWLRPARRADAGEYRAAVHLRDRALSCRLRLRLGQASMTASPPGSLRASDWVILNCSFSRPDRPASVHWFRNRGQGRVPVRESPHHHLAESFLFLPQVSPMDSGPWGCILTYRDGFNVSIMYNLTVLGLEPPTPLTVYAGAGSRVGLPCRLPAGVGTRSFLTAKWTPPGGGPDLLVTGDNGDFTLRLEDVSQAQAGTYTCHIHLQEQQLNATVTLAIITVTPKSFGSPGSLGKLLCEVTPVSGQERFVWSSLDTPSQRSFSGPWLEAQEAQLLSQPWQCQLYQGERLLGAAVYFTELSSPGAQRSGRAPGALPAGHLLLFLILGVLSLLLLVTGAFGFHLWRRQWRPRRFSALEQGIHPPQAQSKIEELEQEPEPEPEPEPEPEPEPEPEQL
# Tests used:
# [1] = target: T1, LAG3 Protein, Human, Recombinant (His …); assay: ELISA, coated hLAG3-His
# Method: (§1) Plates were coated with 100 µL per well of Coating Solution, and then covered, and incubated overnight (12-18 hours) at 2-8° C. The wells were aspirated and washed 1 time with >200 µL of Wash buffer per well, inverted and tapped on absorbent paper to remove excess liquid. The plates were blocked with 200 µL per well with Blocking buffer (1×PBS+4% milk) for 1 hour at room temperature, aspirated, inverted, and tapped on absorbent paper to remove excess liquid. Standards and sample dilutions were prepared in Blocking buffer. 100 µL of standards (in duplicate) and samples were pipetted into designated wells. After incubation for 1 hour at room temperature with gentle continual shaking (~500 rpm), the wells were aspirate and washed 3 times with >200 µL of Wash buffer per well, inverted and tapped on absorbent paper to remove excess liquid.
# (§2) The primary antibody solution was diluted with Blocking buffer. See Table 14 for recommended primary antibody dilution. 100 µL of the primary antibody solution was added into each well and incubated for 2 hours at room temperature with gentle continual shaking (~500 rpm). The wells were aspirated and washed 3 times with >200 µL of Wash buffer per well, inverted and tapped on absorbent paper to remove excess liquid. The working solution of secondary antibody was made with Blocking buffer by diluting the secondary antibody by 2,500 times. 100 µL of secondary antibody working solution was added into each well and incubated for 30 minutes at room temperature. The wells were aspirated and washed 5 times with >200 µL of Wash buffer per well, inverted and tapped on absorbent paper to remove excess liquid. 100 µL of TMB substrate solution (Biopanda, TMB-S-004) was added to each well and incubated for 30 minutes at room temperature. 100 µL of Stop solution (Solarbio, C1058) was added to each well.
# [2] = target: T2, human LAG3 expressed on cells; assay: cell-based or functional assay
# [3] = target: T2, human LAG3 expressed on cells; assay: FACS, 293T-hLAG3 cells
# Method: 5) The prepared antibody samples were added to the 96-well plate according to the platemap, the cells were resuspended and incubate at 4° C. for 1 hour.
# 7) 3% BSA/1xPBS was used to dilute Goat polyclonal Secondary Antibody to Human IgG-Fc (DyLight® 650) to the desired concentration (1:200), in which the cells were resuspended and incubated at 4° C. for 1 hour.
# 9) The cells were resuspended in 200 µl of 3% BSA/1xPBS, and performed flow cytometric testing by Shsti Biotech Inc.
# [4] = target: T1, LAG3 Protein, Human, Recombinant (His …); assay: ELISA, coated hLAG3-His; remark: listed apart in the source
# Method: as §1
# as §2, with “well. Absorbance at 450 nm was measured within 30 minutes of adding Stop solution. Results were calculated using a log-log or 4-parameter curve fit.” for “well.”
EC50 [1] [nM],"IL-2, % of BMS, at 0.005080526 ug/mL [2] [%]","IL-2, % of BMS, at 0.015241579 ug/mL [2] [%]","IL-2, % of BMS, at 0.045724737 ug/mL [2] [%]","IL-2, % of BMS, at 0.137174211 ug/mL [2] [%]","IL-2, % of BMS, at 0.411522634 ug/mL [2] [%]","IL-2, % of BMS, at 1.234567901 ug/mL [2] [%]","IL-2, % of BMS, at 3.703703704 ug/mL [2] [%]","IL-2, % of BMS, at 11.11111111 ug/mL [2] [%]","IL-2, % of BMS, at 33.33333333 ug/mL [2] [%]","IL-2, % of BMS, at 100 ug/mL [2] [%]",EC50 [3] [nM],FACS signal at 0.061 nM [3],FACS signal at 0.1829 nM [3],FACS signal at 0.5487 nM [3],FACS signal at 1.6461 nM [3],FACS signal at 4.9383 nM [3],FACS signal at 14.815 nM [3],FACS signal at 44.445 nM [3],FACS signal at 133.335 nM [3],Binder,also measured
2.17,,,,,,,,,,,,,,,,,,,,"sdAb No. 17 (VHH, Fc of the tested form not described; also called sdAb 17; not shown: Fc part implied by anti-human Fc capture and anti-human IgG1 Fc detection) VHH: QLQLVESGGGLVQPGGSLRLSCAASGLTLDGYAIGWFRQAPGKEREGLACISGSDGSTHYLDSVKGRFTISRDNGKNTMALQMNSLQFGDTAIYYCAARRGSCSGSWTYWGQGTQVTVSS",
,3.24,-0.59,8.03,2.39,9.2,25.1,30.6,34.1,39.8,53.7,1.48,99.2,247,618,1410,2000,2280,2540,2580,"sdAb No. 25 (VHH, Fc of the tested form not described; also called sdAb 25; sdAb #25; not shown: Fc part implied by anti-human Fc capture and anti-human IgG Fc detection) VHH: QLQLVESGGGLVQAGGSLRLSCAASGSIESFSFMGWYRQAPGKQRELVAGFTGAASLSFSTYTDAVKGRFTISRDNAKNTVYLQMNSLKPEDTAVYFCNVDPWSQSWPGRYWGQGTQVTVSS",EC50 [4]: 3.45 nM; OD450 at 0.061 nM [4]: 0.037; OD450 at 0.1829 nM [4]: 0.042; OD450 at 0.5487 nM [4]: 0.06; OD450 at 1.6461 nM [4]: 0.233; OD450 at 4.9383 nM [4]: 0.643; OD450 at 14.815 nM [4]: 0.85; OD450 at 44.445 nM [4]: 0.882; OD450 at 133.335 nM [4]: 1.02
3.14,5.57,13.4,12.1,18,27.3,36.5,43.4,50,52.9,52.8,1.77,163,393,1010,2240,3570,4130,4490,4630,"sdAb No. 27 (VHH, Fc of the tested form not described; also called sdAb 27; not shown: Fc part implied by anti-human Fc capture and anti-human IgG Fc detection) VHH: QVQLVESGGGLVQPGGSLRLSCAASGFTLDYYAIGWFRQAPGKEREGVSCIRSSDGSTYYADSVKGRFTISSDNTKNTVYLQMNSLKPEDTAVYYCATDRYSDCRGPYENWGQGTQVTVSS",OD450 at 0.004572 ug/ml [1]: 0.039; OD450 at 0.013717 ug/ml [1]: 0.042; OD450 at 0.041152 ug/ml [1]: 0.063; OD450 at 0.123457 ug/ml [1]: 0.331; OD450 at 0.37037 ug/ml [1]: 1.5; OD450 at 1.111111 ug/ml [1]: 1.84; OD450 at 3.333333 ug/ml [1]: 1.77; OD450 at 10 ug/ml [1]: 2.15; EC50 [4]: 4.7 nM; OD450 at 0.061 nM [4]: 0.037; OD450 at 0.1829 nM [4]: 0.042; OD450 at 0.5487 nM [4]: 0.059; OD450 at 1.6461 nM [4]: 0.257; OD450 at 4.9383 nM [4]: 1.04; OD450 at 14.815 nM [4]: 1.57; OD450 at 44.445 nM [4]: 1.77; OD450 at 133.335 nM [4]: 1.95
